{"source": "the supplement of paper PMC10899765", "details_in_all_cases": "20 nM; 72 h", "key": {"MCF10A [1]": {"tested_on": "MCF10A", "experiment": "one-nucleolus phenotype percent effect (relative to siNT 0% and siNOL11 100%); higher = more cells with one nucleolus (ribosome biogenesis inhibition)", "experimental": "(§1)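 After 72 h, cells were fixed and stained with Hoechst and anti-fibrillarin, and nucleoli per nucleus were counted with CellProfiler. Values are plate-adjusted percent effect for the one-nucleolus and 5+ nucleoli phenotypes, normalised to siNT (0%) and to the positive controls siNOL11 or siKIF11 (100%), as the mean of biological triplicates. Percent viability is the nuclei count relative to siNT.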"}, "MCF10A [2]": {"tested_on": "MCF10A", "experiment": "percent viability (nuclei count relative to siNT); higher = more viable cells", "experimental": "as §1"}, "MCF10A [3]": {"tested_on": "MCF10A", "experiment": "5+ nucleoli phenotype percent effect (relative to siNT 0% and siKIF11 100%); higher = more cells with five or more nucleoli", "experimental": "as §1"}}, "data": [{"sequence": "UUGCAUAUGUAGGAUGUCCCAU [hsa-miR-448]", "values": [{"measurement": "one-nucleolus phenotype percent effect", "setting": "MCF10A [1]", "result": -2.74, "unit": "%"}, {"measurement": "percent viability", "setting": "MCF10A [2]", "result": 75.6, "unit": "%"}, {"measurement": "5+ nucleoli phenotype percent effect", "setting": "MCF10A [3]", "result": 34, "unit": "%"}]}, {"sequence": "GCUGGGCGAGGCUGGCA [hsa-miR-4486]", "values": [{"measurement": "one-nucleolus phenotype percent effect", "setting": "MCF10A [1]", "result": 19.5, "unit": "%"}, {"measurement": "percent viability", "setting": "MCF10A [2]", "result": 38.6, "unit": "%"}, {"measurement": "5+ nucleoli phenotype percent effect", "setting": "MCF10A [3]", "result": 3.78, "unit": "%"}]}, {"sequence": "CUGUGGGCUCAGCUCUGGG [hsa-miR-4265]", "values": [{"measurement": "one-nucleolus phenotype percent effect", "setting": "MCF10A [1]", "result": 42.3, "unit": "%"}, {"measurement": "percent viability", "setting": "MCF10A [2]", "result": 27.1, "unit": "%"}, {"measurement": "5+ nucleoli phenotype percent effect", "setting": "MCF10A [3]", "result": -38.1, "unit": "%"}]}, {"sequence": "UCCCACGUUGUGGCCCAGCAG [hsa-miR-662]", "values": [{"measurement": "one-nucleolus phenotype percent effect", "setting": "MCF10A [1]", "result": -20.4, "unit": "%"}, {"measurement": "percent viability", "setting": "MCF10A [2]", "result": 128, "unit": "%"}, {"measurement": "5+ nucleoli phenotype percent effect", "setting": "MCF10A [3]", "result": 35.3, "unit": "%"}]}, {"sequence": "GUGCGUGGUGGCUCGAGGCGGGG [hsa-miR-6821-5p]", "values": [{"measurement": "one-nucleolus phenotype percent effect", "setting": "MCF10A [1]", "result": -27.7, "unit": "%"}, {"measurement": "percent viability", "setting": "MCF10A [2]", "result": 82.1, "unit": "%"}, {"measurement": "5+ nucleoli phenotype percent effect", "setting": "MCF10A [3]", "result": 24.3, "unit": "%"}]}, {"sequence": "UUCCAGCCCUGGUAGGCGCCGCG [hsa-miR-6720-5p]", "values": [{"measurement": "one-nucleolus phenotype percent effect", "setting": "MCF10A [1]", "result": 45, "unit": "%"}, {"measurement": "percent viability", "setting": "MCF10A [2]", "result": 17.9, "unit": "%"}, {"measurement": "5+ nucleoli phenotype percent effect", "setting": "MCF10A [3]", "result": -23.2, "unit": "%"}]}, {"sequence": "GAACCCAUGAGGUUGAGGCUGCAGU [hsa-miR-1273d]", "values": [{"measurement": "one-nucleolus phenotype percent effect", "setting": "MCF10A [1]", "result": 3.74, "unit": "%"}, {"measurement": "percent viability", "setting": "MCF10A [2]", "result": 39.1, "unit": "%"}, {"measurement": "5+ nucleoli phenotype percent effect", "setting": "MCF10A [3]", "result": -8.88, "unit": "%"}]}, {"sequence": "AGUAUGUUCUUCCAGGACAGAAC [hsa-miR-567]", "values": [{"measurement": "one-nucleolus phenotype percent effect", "setting": "MCF10A [1]", "result": 8.77, "unit": "%"}, {"measurement": "percent viability", "setting": "MCF10A [2]", "result": 56.1, "unit": "%"}, {"measurement": "5+ nucleoli phenotype percent effect", "setting": "MCF10A [3]", "result": 34.9, "unit": "%"}]}, {"sequence": "UGUGGGACUGCAAAUGGGAG [hsa-miR-4648]", "values": [{"measurement": "one-nucleolus phenotype percent effect", "setting": "MCF10A [1]", "result": 19.7, "unit": "%"}, {"measurement": "percent viability", "setting": "MCF10A [2]", "result": 41.5, "unit": "%"}, {"measurement": "5+ nucleoli phenotype percent effect", "setting": "MCF10A [3]", "result": -30.5, "unit": "%"}]}, {"sequence": "GCAGAGAACAAAGGACUCAGU [hsa-miR-3919]", "values": [{"measurement": "one-nucleolus phenotype percent effect", "setting": "MCF10A [1]", "result": 38.7, "unit": "%"}, {"measurement": "percent viability", "setting": "MCF10A [2]", "result": 23.3, "unit": "%"}, {"measurement": "5+ nucleoli phenotype percent effect", "setting": "MCF10A [3]", "result": -14.9, "unit": "%"}]}, {"sequence": "AAAGAUCUGGAAGUGGGAGACA [hsa-miR-3156-5p]", "values": [{"measurement": "one-nucleolus phenotype percent effect", "setting": "MCF10A [1]", "result": -18.8, "unit": "%"}, {"measurement": "percent viability", "setting": "MCF10A [2]", "result": 43.6, "unit": "%"}, {"measurement": "5+ nucleoli phenotype percent effect", "setting": "MCF10A [3]", "result": 45.1, "unit": "%"}]}, {"sequence": "CCGGUUCCAGUCCCUGGAG [hsa-miR-6070]", "values": [{"measurement": "one-nucleolus phenotype percent effect", "setting": "MCF10A [1]", "result": 16.9, "unit": "%"}, {"measurement": "percent viability", "setting": "MCF10A [2]", "result": 55.6, "unit": "%"}, {"measurement": "5+ nucleoli phenotype percent effect", "setting": "MCF10A [3]", "result": -6.27, "unit": "%"}]}, {"sequence": "AAGCCCUGUCUCCUCCCAUCU [hsa-miR-6779-3p]", "values": [{"measurement": "one-nucleolus phenotype percent effect", "setting": "MCF10A [1]", "result": 9.83, "unit": "%"}, {"measurement": "percent viability", "setting": "MCF10A [2]", "result": 68.1, "unit": "%"}, {"measurement": "5+ nucleoli phenotype percent effect", "setting": "MCF10A [3]", "result": -41.9, "unit": "%"}]}, {"sequence": "UUGGGCCCAGGAGUAAACAGGAU [hsa-miR-6773-5p]", "values": [{"measurement": "one-nucleolus phenotype percent effect", "setting": "MCF10A [1]", "result": -0.04, "unit": "%"}, {"measurement": "percent viability", "setting": "MCF10A [2]", "result": 40.3, "unit": "%"}, {"measurement": "5+ nucleoli phenotype percent effect", "setting": "MCF10A [3]", "result": -4.65, "unit": "%"}]}, {"sequence": "CAAAGUGCUUACAGUGCAGGUAG [hsa-miR-17-5p]", "values": [{"measurement": "one-nucleolus phenotype percent effect", "setting": "MCF10A [1]", "result": -20.9, "unit": "%"}, {"measurement": "percent viability", "setting": "MCF10A [2]", "result": 71.5, "unit": "%"}, {"measurement": "5+ nucleoli phenotype percent effect", "setting": "MCF10A [3]", "result": 27.3, "unit": "%"}]}, {"sequence": "UUCUGAGCUGAGGACAG [hsa-miR-4303]", "values": [{"measurement": "one-nucleolus phenotype percent effect", "setting": "MCF10A [1]", "result": -2.54, "unit": "%"}, {"measurement": "percent viability", "setting": "MCF10A [2]", "result": 45.5, "unit": "%"}, {"measurement": "5+ nucleoli phenotype percent effect", "setting": "MCF10A [3]", "result": -10.7, "unit": "%"}]}, {"sequence": "CCUGGUGGCUUCCUUUU [hsa-miR-4456]", "values": [{"measurement": "one-nucleolus phenotype percent effect", "setting": "MCF10A [1]", "result": 6.37, "unit": "%"}, {"measurement": "percent viability", "setting": "MCF10A [2]", "result": 23.6, "unit": "%"}, {"measurement": "5+ nucleoli phenotype percent effect", "setting": "MCF10A [3]", "result": -4.84, "unit": "%"}]}, {"sequence": "ACCCCCGGGCAAAGACCUGCAGAU [hsa-miR-6840-5p]", "values": [{"measurement": "one-nucleolus phenotype percent effect", "setting": "MCF10A [1]", "result": 5.12, "unit": "%"}, {"measurement": "percent viability", "setting": "MCF10A [2]", "result": 92, "unit": "%"}, {"measurement": "5+ nucleoli phenotype percent effect", "setting": "MCF10A [3]", "result": -18.8, "unit": "%"}]}, {"sequence": "AGCUCCCUGAAUCCCUGUCCCAG [hsa-miR-7106-3p]", "values": [{"measurement": "one-nucleolus phenotype percent effect", "setting": "MCF10A [1]", "result": -19.5, "unit": "%"}, {"measurement": "percent viability", "setting": "MCF10A [2]", "result": 74.6, "unit": "%"}, {"measurement": "5+ nucleoli phenotype percent effect", "setting": "MCF10A [3]", "result": 32.5, "unit": "%"}]}, {"sequence": "UGCAGGACCAAGAUGAGCCCU [hsa-miR-1286]", "values": [{"measurement": "one-nucleolus phenotype percent effect", "setting": "MCF10A [1]", "result": 5.46, "unit": "%"}, {"measurement": "percent viability", "setting": "MCF10A [2]", "result": 35.9, "unit": "%"}, {"measurement": "5+ nucleoli phenotype percent effect", "setting": "MCF10A [3]", "result": 1.93, "unit": "%"}]}, {"sequence": "CAGGGGCUGGGGUUUCAGGUUCU [hsa-miR-6813-5p]", "values": [{"measurement": "one-nucleolus phenotype percent effect", "setting": "MCF10A [1]", "result": -4.41, "unit": "%"}, {"measurement": "percent viability", "setting": "MCF10A [2]", "result": 23.1, "unit": "%"}, {"measurement": "5+ nucleoli phenotype percent effect", "setting": "MCF10A [3]", "result": -16.1, "unit": "%"}]}, {"sequence": "GGGGGGAUGUGCAUGCUGGUU [hsa-miR-4525]", "values": [{"measurement": "one-nucleolus phenotype percent effect", "setting": "MCF10A [1]", "result": 22.7, "unit": "%"}, {"measurement": "percent viability", "setting": "MCF10A [2]", "result": 26.2, "unit": "%"}, {"measurement": "5+ nucleoli phenotype percent effect", "setting": "MCF10A [3]", "result": -7.81, "unit": "%"}]}, {"sequence": "GCCCCGGGCAGUGUGAUCAUC [hsa-miR-5587-3p]", "values": [{"measurement": "one-nucleolus phenotype percent effect", "setting": "MCF10A [1]", "result": -20.5, "unit": "%"}, {"measurement": "percent viability", "setting": "MCF10A [2]", "result": 108, "unit": "%"}, {"measurement": "5+ nucleoli phenotype percent effect", "setting": "MCF10A [3]", "result": 18.8, "unit": "%"}]}, {"sequence": "AAAGGUAACUGUGAUUUUUGCU [hsa-miR-548ba]", "values": [{"measurement": "one-nucleolus phenotype percent effect", "setting": "MCF10A [1]", "result": -24.2, "unit": "%"}, {"measurement": "percent viability", "setting": "MCF10A [2]", "result": 146, "unit": "%"}, {"measurement": "5+ nucleoli phenotype percent effect", "setting": "MCF10A [3]", "result": 38.2, "unit": "%"}]}]}
